Experiment: soluble on expression in E. coli; label from the status in PepcDB or PDB records

Row | Sequence | soluble on expression in E. coli
1 | MIINKVKSLIKHGFNLAIDISADILLIFTETGRTYEYYKDQEAIYKRARKNRSLKDFKSLKVVVTTPNEETFLKLKNESKIIPLLMTYRNDDRSSMIKQAVTNLFANNIVKKGDIVVSILGIPKVTGGTDTISIFEVNEYPQILKYYDYISSIEKTKGKVINEVLNLCMELAVEGREGTPVGSIFVIGDSDRVLKMSSQLILNPFEGHESFIFDKQVKGTVKELSTIDGAFVIGEKGEVLCAGRYISCSGGNIELPLGLGARHHAAATISKYTGAIAITVSESGGVIRIFKNGEILSEIKPKKLSNTSEYSY | not soluble
2 | FESGLDLSDAEPDAGEATAYASKDLEEQLRSVSSVDELMTVLYPEYWKMYKCQLRKGGWQHNREQANLNSRTEETIKFAAAHYNTEILKSIDNEWRKTQCMPREVCIDVGKEFGVATNTFFKPPCVSVYRCGGCCNSEGLQCMNTSTSYLSKTLFEITVPLSQGPKPVTISFANHTSCRCMSKLDVYRQVHSIIRRSLPATLPQCQAANKTCPTNYMWNNHICRCLAQEDFMFSSDAGDDSTDGFHDICGPNKELDEETCQCVCRAGLRPASCGPHKELDRNSCQCVCKNKLFPSQCGANREFDENTCQCVCKRTCPRNQPLNPGKCACECTESPQKCLLKGKKFHHQTCSCYRRPCTNRQKACEPGFSYSEEVCRCVPSYWKRPQMS | not soluble
3 | SIRTSFIKLPGSDGSRYCDSWRLAAETNNVGTWDLIPSICVDSVAEYLNGDQFLSDYSVIVDYALAFAKSVEISGDGKDVWIFDIDETLLTNIDYYKAHGYGSEPYDDNKFSEWVEQGTAPAFDASLRLYNALKKLGFTIILLTGRDEHQRTSTETNLRDAGYSGWERLLLRGPNDQGKSATNYKSEQRSKLIEEGFKIRGNSGDQWSDLQGFAVADRSFKVPNPMYYIP | soluble
4 | MESSKKMDSPGALQTNPPLKLHTDRSAGTPVFVPEQGGYKEKFVKTVEDKYKCEKCHLVLCSPKQTECGHRFCESCMAALLSSSSPKCTACQESIVKDKVFKDNCCKREILALQIYCRNESRGCAEQLTLGHLLVHLKNDCHFEELPCVRPDCKEKVLRKDLRDHVEKACKYREATCSHCKSQVPMIALQVSLLQNESVEKNKSIQSLHNQICSFEIEIERQKEMLRNNESKILHLQRVIDSQAEKLKELDKEIRPFRQNWEEADSMKSSVESLQNRVTELESVDKSAGQVARNTGLLESQLSRHDQMLSVHDIRLADMDLRFQVLETASYNGVLIWKIRDYNRRKQEAVMGKTLSLYSQPFYTGYFGYKMCARVYLNGDGMGKGTHLSLFFVIMRGEYDALLPWPFKQKVTLMLMDQGSSRRHLGDAFKPDPNSSSFKKPTGEMNIASGCPVFVAQTVLENGTYIKDDTIFIKVIVDTSDLPDP | soluble
5 | PQFSLWKRPVVTAYIEGQPVEVLLDTGADDSIVAGIELGNNYSPKIVGGIGGFINTLEYKNVEIEVLNKKVRATIMTGDTPINIFGRNILTALGMSLNL | soluble
6 | MKNESIKIFQKKKQVILEKWITIQSQDQGLNNDLITNEDLRVQSEELLYTFIDNLTDNNIENPDSRDFENVLDILSSISISRAKQGYSPRETGFYVYSLKEALLSVLNEEIKDSSVLYTQSMAINKLLDSFTISTFETFIKGREDVIFRQTDEITQISTPVIRVWDGILALPIIGTLDSSRTQVVMESLLQEIVDTGSSIAILDISGVPAVDSLVAQHLIKTVSATRLMGAECIISGIRPEIAQTVVHLGIDLSTIITKATLASALKTAFVMLNLEVNKKQRNKTV | not soluble
7 | NDSLVLFSTDLKLLWANRSAEHLYGDYVEQLVGQEFTSLKGARGIPSDAIAVRASLGSGEPCYERVSAADGRIWDMKYFPVRGED | not soluble
8 | MMGEPARLRRLTAEEYLREEATSPVKRELVEGVPYAMAGAGRAHNLIVTNLVLLLGPLARRKGCRLYVADMKLKVGEATFYYPDLMAVCAPPPESPLYEEAPCLVVEVLSPATEGVDRREKLWRYLSLPSLEGYLLVSARERRVELYRKEGDILHQVAEEGEVPLPCLEGSLPVAEVYAGVELEGQEA | soluble
9 | MGSDKIHHHHHHMRKPKITVIGGGTGSPVILKSLREKDVEIAAIVTVADDGGSSGELRKNMQQLTPPGDLRNVLVAMSDMPKFYEKVFQYRFSEDAGAFAGHPLGNLIIAGLSEMQGSTYNAMQLLSKFFHTTGKIYPSSDHPLTLHAVFQDGTEVAGESHIVDHRGIIDNVYVTNALNDDTPLASRRVVQTILESDMIVLGPGSLFTSILPNIVIKEIGRALLETKAEIAYVCNIMTQRGETEHFTDSDHVEVLHRHLGRPFIDTVLVNIEKVPQEYMNSNRFDEYLVQVEHDFVGLCKQVSRVISSNFLRLENGGAFHDGDLIVDELMRIIQVKK | not soluble
